The values that follow are results of earlier work, collected in patent US20020119915A1, “Nutritional intervention composition containing a source of proteinase inhibitor extending post meal satiety” (priority 1999, published 2002).

For the data set, the system named is humans. Conditions: injection, 1981 study.

B1: Cholecystokinin (peptide, UniProt P06307 21-115, looked up)
Cholecystokinin: QPVPPADPAGSGLQRAEEAPRRQLRVSQRTDGESRAHLGALLARYIQQARKAPSGRMSIVKNLQNLDPSHRISDRDYMGWMDFGRRSAEEYEYPS
modifications: Cholecystokinin
B1: the “Decrease of food intake” value was 16%.
